The target in the assay is L-plastin EF construct (EF-hand headpiece domain, H5 region omitted) (human). The experiment in a line: SPR; EF construct immobilised by its sole cysteine (Cys42) on a CM5 chip by thiol coupling; peptides injected; BIAcore X100; 10 mM Tris-HCl pH 7.5, 150 mM KCl, 1 mM CaCl2, 0.005% Tween-20; 30 uL/min, contact 1 min, 25 °C.

Usually Kd stands for the constant that tells how readily two partners part at equilibrium. Molecule Ac-STDVAKTFRKAINKKEGI-NH2 [synthetic H5 peptide representing the H5 region of LPL (residues 83-100)] came in with a Kd of 3.52 µM.

The values above are taken from PMC5286426, “The Calcium-Dependent Switch Helix of L-Plastin Regulates Actin Bundling” (Scientific Reports, 2017).
